This series concerns the molecule itself. The experiment in a line: negative-stain EM.

B1: MxB after cleavage of the MBP tag by HRV-3C protease (natural protein, human, UniProt P20592 1-715, looked up)
chain: MSKAHKPWPYRRRSQFSSRKYLKKEMNSFQQQPPPFGTVPPQMMFPPNWQGAEKDAAFLAKDFNFLTLNNQPPPGNRSQPRAMGPENNLYSQYEQKVRPCIDLIDSLRALGVEQDLALPAIAVIGDQSSGKSSVLEALSGVALPRGSGIVTRCPLVLKLKKQPCEAWAGRISYRNTELELQDPGQVEKEIHKAQNVMAGNGRGISHELISLEITSPEVPDLTIIDLPGITRVAVDNQPRDIGLQIKALIKKYIQRQQTINLVVVPCNVDIATTEALSMAHEVDPEGDRTIGILTKPDLMDRGTEKSVMNVVRNLTYPLKKGYMIVKCRGQQEITNRLSLAEATKKEITFFQTHPYFRVLLEEGSATVPRLAERLTTELIMHIQKSLPLLEGQIRESHQKATEELRRCGADIPSQEADKMFFLIEKIKMFNQDIEKLVEGEEVVRENETRLYNKIREDFKNWVGILATNTQKVKNIIHEEVEKYEKQYRGKELLGFVNYKTFEIIVHQYIQQLVEPALSMLQKAMEIIQQAFINVAKKHFGEFFNLNQTVQSTIEDIKVKHTAKAENMIQLQFRMEQMVFCQDQIYSVVLKKVREEIFNPLGTPSQNMKLNSHFPSNESSVSSFTEIGIHLNAYFLETSKRLANQIPFIIQYFMLRENGDSLQKAMMQILQEKNRYSWLLQEQSETATKRRILKERIYRLTQARHALCQFSSKEIH
As to B1, the binding result is “binds”.

The values are drawn from paper PMC8164019 (Methods in molecular biology (Clifton, N.J.), 2020).
